Tests used:
Assay in all cases: flow cytometry on cells
[1] = biological target: Y353, yeast surface-displayed ACE2(614) variant from sort 4 (human) (UniProt Q9BYF1)
[2] = biological target: Y373, yeast surface-displayed ACE2(614) variant from sort 5 (human) (UniProt Q9BYF1)
[3] = biological target: best-characterized ACE2(614) mutant from sort 3.1, yeast surface-displayed (human) (UniProt Q9BYF1)

How did the Kd [1] turn out when “SARS-CoV-2 spike RBD monomer (328-533), 8XHis tag and AviTag, biotinylated (from UniProt P0DTC2 328-533) (domain or fragment)” was run?
Its Kd is 0.19 nM.

And the Kd [2]?
The Kd was 0.12 nM.

What about the Kd [3] of the same substance?
The Kd was 0.52 nM.
